Measurements published in publication PMC2708863.
Where two headings read alike, the source gives them in different places.

Key:
Experiment in all cases: NMR titration
[1] = target: ^2–5FnI, second to fifth type I domains of human fibronectin (human)
[2] = target: ^2–3FnI, human fibronectin residues 93–182 (human) (UniProt P02751)
[3] = target: ^4–5FnI, human fibronectin residues 183–275 (human) (UniProt P02751)
[4] = target: ^4–5FnI, human fibronectin residues 183–275 (human) (UniProt P02751); remark: listed apart in the source

| Kd [1] | fractional saturation [1] | Kd [2] | Kd [3] | Kd [4] | Substance |
| --- | --- | --- | --- | --- | --- |
| 125 µM | 25% |  |  |  | ^2–3FnIII, second and third type III domains of human fibronectin (domain or fragment) |
|  |  | 710 µM | 1200 µM | 820 µM | ^2FnIII, second type III domain of human fibronectin (domain or fragment) |
